In one experiment the target is GLD52. The experiment in a line: SPR.
In a further experiment the target is Y436T. Put plainly: SPR.

In the case of GQNDTSQTSSPS [CD52 peptide 741], the Kd with GLD52 was found to be 2.44 nM; with Y436T it was 1.95 nM.

Values taken from patent US10494439 (dated 2019).
